From the DeepSol protein solubility set come the findings set out here.

This data set is described as follows: soluble on expression in E. coli; label from the status in PepcDB or PDB records.
Take “MSLPNSEDLRKPDAQREVGRHYPVTLDNQLVSTPEEEVIAPPSVMLRWETYQVANGESAALLFQRAGLSSRVLYELTSSNSDINNQLSKLMPKDELKFGFDKDNQLVQLKRTISPYETFVVTRSDSGFTSEFDKKEVTFQLNYAEAKITSNFWNAGVTAGLSANQIIELANMFGWDIDFALDIREGDQFKLLYQEKIVEGSVIGRGNIIAATFINQGSTFTAILDDNTGNYYDQNGRAMKKAFLRSPLDFRRVSSNFNPRRLHPVTGQIKAHRGTDYVAPVGTPIWAAGDGVVEKSSYNQFNGNYVYIRHSNTYITKYLHLQRRLVKTGERVKQGQTIGTLGGTGRVTGPHLHYEFLVNGIHKNPRTVELPQAQSLTGKAKETFIANAKQRMEKLERYSQLLYANQEGHHHHHH”: the “soluble on expression in E. coli” value is “soluble”.
As for “MLTKANPPPSKTSPLKVWAVSDGRAGIEAQVVGLAEAISRLAPCEVTVKRVGWQGNIGRLPWWLNLLPKRWLTQESGVPDSRNPDDWPDLWIAAGRATLPLSIRAKRWSGGKSFVVQIQDPRVPPHMFDLVIPPKHDRMSGDNILPITGSPHRVTPQRLAAEYEAFQDLIEPLPRPRVAVLVGGKSKAFDLSSERAAQIAHSIQIPLEQDGGSLLMTFSRRTPETARALMTARLRHLPGVVWNGEGPNPYFAFLAAADYILVTEDSTNMATEAASTGKPVFVLKMDGSSLKFRLFHEELERQGAARPYGGAFHGWTYTPVNETDRAAREVLARIGLEHHHHHH”, the “soluble on expression in E. coli” value is “not soluble”.
With “MKRPNFLFVMTDTQATNMVGCYSGKPLNTQNIDSLAAEGIRFNSAYTCSPVCTPARAGLFTGIYANQSGPWTNNVAPGKNISTMGRYFKDAGYHTCYIGKWHLDGHDYFGTGECPPEWDADYWFDGANYLSELTEKEISLWRNGLNSVEDLQANHIDETFTWAHRISNRAVDFLQQPARADEPFLMVVSYDEPHHPFTCPVEYLEKYADFYYELGEKAQDDLANKPEHHRLWAQAMPSPVGDDGLYHHPLYFACNDFVDDQIGRVINALTPEQRENTWVIYTSDHGEMMGAHKLISKGAAMYDDITRIPLIIRSPQGERRQVDTPVSHIDLLPTMMALADIEKPEILPGENILAVKEPRGVMVEFNRYEIEHDSFGGFIPVRCWVTDDFKLVLNLFTSDELYDRRNDPNEMHNLIDDIRFADVRSKMHDALLDYMDKIRDPFRSYQWSLRPWRKDARPRWMGAFRPRPQDGYSPVVRDYDTGLPTQGVKVEEKKQKF”, the “soluble on expression in E. coli” value was “soluble”.
To “MGSDKIHHHHHHMKDNFFGREYDIAPAGGETGQAFVATHEDEKFFLKRNSSPFLAALSVENIVPKLVWTRRVENGDVITAQKWVNCHILTREEMVGPRVAKLLAKIHHSENLQHMLAKIENCYFSADQLLSLIKVNTKANNELSKEIIAAIRYLEQNLSAAQTNDYVVCHGDVNHNNWIISEENELFLVDWDGAMLADPANDIGMILYQYIPRKDWVSWLSNYGTTLTEELHRKLKWYTICQTVMQLITEHSNEANERAKQIFQNAIEDDEV” belongs “not soluble”; to “MSWWQDMDQRGGVSSPSGALASAEPAPASVTLAELLHLVQKGQEVPGLEKRHITATHGEPTASLLPRRPKPWEDAGSAASPCTIALDTRTQPPTIEERSRGSPAAQLDGGPRVS”, “soluble”; to “MGSDKIHHHHHHMNLLEVKSLKARFKRGGFALESVNLTLKKGECVSIVGESGSGKSFLAQLIVRLFPQGSVEVEEGEILFLGENLLDFSQERLEGVRGSEIGFVFQEPLISLNPLHTIEKQLAEAILLHRSLSREELKREIGALYASVGLEALKGRAKIYPHELSGGQRQRVMIAMALANSPKLLIADEPTTALDVSVQKQILDLLFRLKEERGVSLLLISHDLGVVRHYADKVYVMKGGKVVESASKEELFAHPKHPYTQALLSSLHLPLKESPPSRGEILLEAENLDLSFVLKKDWLGRPKEYLRALSSISLRLREGENLGIVGESGSGKSTLALALCKLLSFEGRLRMGHEEMAKMEESRFRPFRSMIQIVFQDPYGSLSPRLSIEEILREGLEVHFPAQKESFERRIIEALEGVGLESSYRYRYPNELSGGQRQRVAIARALILRPKILILDEPTSALDRSIEHQVVALLLELQKRYNLTYLCISHDLRVIGALSDRVAVMKGGRLIEEGETSLILQSPTHPYTQELIGSLLL”, “not soluble”.
Regarding “SGRLHCTEDPVPEAVGGDMQQLNQLGAQQFSALTEVLFHFLTEQKEVERFLAQLSEFATTNQISLGSLRSIVKSLLLVPNGALKKSLTAKQVQADFITLGLSEEKATYFSEKWKQNTPTLARWAIGQTLMINQLIDMEWKFGVTSGSSELEKVGSIFLQLKLVVKKGNQTKNVYIELTLPQFYSFLHEMERVRTSMECFC”, the “soluble on expression in E. coli” value is “soluble”.
Consider “MIYNKTINGLKVFIKDNDPFYEQVLNDFLTCRVKTLKVFRSIDDTKVILIDTARGPLVLKVYAPKHKMTERFLKSCIKKDYYENLIYQTDRVRGEGIQSINDYFLLAERKTLNFAHYYIMLIEYIEGVGLNEYLEISEDLKDQLSESIKELHQHGMVSGDPHKGNFIVSEKGLRLIDLSGKKTTAVLKAKDRIDLERHYNIKNELKDFGYTYLIFKKKIKKVIRDVKVKLGLKSKLEHHHHHH”, for which the “soluble on expression in E. coli” value is “not soluble”.
As to “MSLKAFGFNQYGNSNVMEELNIPIPKIKPGEVLVKTTAFAINAFDIAVRNGQFRNNVTLLFPTILGTDGVGRIVKLGAGVHDYSIGDDVLARPGIGTYTEYFKVSVDHLGSRPSNYSPYEAAGLPLSGITAYNTLVHIAHVKQGQTVVILGSSGGVGSMLVQMAHALGLYVIGTDAESARETVLNLGASEFGAYDTERVSSKFKSMADILIDATNLGASIAGIQIIKPTGTYVSLTTLPKDRTLKPDVIYRQVIPRREYRDSDAFTTISLMIRNNQLHVPIDHLESFTLDGIRKGQSDVENGSPDGKVIVTLEGHHHHHH”, the “soluble on expression in E. coli” value is on record as “not soluble”.
To “MQFNAVLVKLLDELEVRLRAAQLWQATPPSSQALVSQEPFAVDTLLPHEWLQWIFLPKMQQAIAQNAVPRGFALEPYFSEVWQGEARYQAVLAVIQQIDKVCQ” belongs “not soluble”.
Turning to “MGSDKIHHHHHHMAEITSISQFLSTAKTQFQVYDLGRRVQHIDAMAFAQIEALQAPYPYPIQGHAKMALVFWDASEQHFVWFISLPLDERGLLSPAPRSHFIQMILEALGQDLTRTLSEDEQQKMANHPFSFKPTQEKLAVFNALVRRHLGRSASSQYEFAAQYLSGQLPAESWPNVGFQGLADICVRLGELDHAAMVARALKNAPMEVQIALCQCLEHVLVSDEVKDALLAGLEEHRDARLIYFLRALGSQSDASVRAIASLAEKRLLTEEVLICIAGRNWLALRDDVCRKNFLEALALMPQDFFNQVFADIVAIPALRTSMLMAIRDPNRSDALSLAIGGLFKATKS”, the “soluble on expression in E. coli” value is reported as “not soluble”.
Consider “MESNFIDWHPADIIAGLRKKGTSMAAESRRNGLSSSTLANALSRPWPKGEMIIAKALGTDPWVIWPSRYHDPQTHEFIDRTQLMRSYTKPKK”, for which the “soluble on expression in E. coli” value is on record as “soluble”.
Consider “GPQKRCLFVCRHGERMDVVFGKYWLSQCFDAKGRYIRTNLNMPHSLPQRSGGFRDYEKDAPITVFGCMQARLVGEALLESNTVIDHVYCSPSLRCVQTAHNILKGLQQDNHLKIRVEPGLFEWTKWVAGSTLPAWIPPSELAAANLSVDTTYRPHIPVSKLAISESYDTYINRSFQVTKEIISECKSKGNNILIVAHASSLEACTCQLQGLSPQNSKDFVQMVRKIPYLGFCSCEELGETGIWQLTDPPILPLTHGPTGGFNWRETLLQE”, for which the “soluble on expression in E. coli” value was “soluble”.
With “MLEFDTTQDQLANIKVIGVGGGGNNAVNRMIEHGVQGVDFIAVNTDAQALNLSKAETKMQIGGKLTRGLGAGANPEVGKKAAEESKEQIQEALRGADMVFVTAGMGGGTGTGAAPVVAQVAKELGALTVGVVTRPFTFEGRKRATQAASGIAAFKENVDTLIVIPNDRLLEIVDKNTPMLEAFREADNVLRQGVQGISDLIATPGLINLDFADVKTIMSNRGSALMGIGSGNGENRAAEAAKKAISSPLLETSIDGAQGVIMNITGGANLSLYEVQEAADIVASASDPEVNMIFGSVINEGLKDDIVVTVIATGFDDSIATQPPKPIIRPNVNHTQQQQQPVAQPPKQREVKREMKREEPVVHERHSDSDSDDIDIPAFLRNRRRR” the entry was “not soluble”.
As for “MSSKSTKRAKIEDPKDNVFMVEKVLDKRTGKAGRDEFLIQWQGFPESDSSWEPRENLQCVEMLDEFEREFSKREKPIRKRHSQKPEPSEDQADPEEDKDEKKETNQNDKFSLEGKQLKCIVGLTKGPGELHFLCKFSDDTARLLPAKEVNSRYRPFVDAYGEFLKKKMERRHKRISEGKKKRSIEEDDADDEWPEMPPGHRILTTEEHELQRRKESKISQDVEMTEAFQQTAADMLNDMHMAANGDLLSSFPQDFLEDSGDGEVHEAAILSVFDDNSNSPPPCPIVVDTVPDDDDSLLFPRNS”, the “soluble on expression in E. coli” value is recorded as “soluble”.
For the sequence “MSSFLFENAAILDGQARELRENQHVLVEANRIIEVSDKPIKSKNSERINVNGMTLMPGLIDAHVHVKATIVNVGRLSDIPVSYLTADAGKFMRQMLMRGFTTVRDAGGADRGLADAVTDGLLIGPRLFVSGLSLSQTGGHGDMRPVTSDSHPITCACLASTQQLGRIADGVDECRRAARDELRKGAHQIKIMAGGGVASPNDPIQNTQYSVEEIRAICEEAAAAHTYVMAHAYVPAAISRAIENGVRTIEHGNLLDAEAAKVMSKHNAFLVPTNVTYRALYKHGKSFGFPEVSIGKLKDVLDVGLSAIEIAKNNGVKIGHGSDLLGECQVYQSDELSIKAEVVGNYEAIRHATEVNAEILNMTGELGVIKENALADILIVDGNPIKDVGFLSNDAKFIPNNNER”, the “soluble on expression in E. coli” value is on record as “soluble”.
For “MSKADPSKGPAPACPGPDPAPRRPTRYVVPPGAVDTHAHVIGLPPTYPFVDARSYTPPAATPESYLAMLDATGMTYGVVVQVSVHGTDNRLMLETLQAHRDRLKGIAVIPLGLPDKELAALKDAGVVGLRLNILYGGGIGFERVGEYAAMAKELGWHLQFLIDAKDLVPLAPQLGGLPVPFIVDHWGHFPVSRGIDDPGFQTLVSLVRDGAWVKLSGAYRNTVAGFPYLDTIPFARLLHETAPDRCVWGSDWPHVATWQHMMNVGELLDLLADWVPDAAARDRVFTDNAYRLYGFTPVQGLEHHHHHH”, the “soluble on expression in E. coli” value is reported as “not soluble”.
To “MSTCTLRFKNDWLKIFTCPVPSSDFLSFVGVATIDAPQHAVLSLLYDIESATEWVWKTREMRVLQELADDNEGRVVYQVVSAPWPVSDREIISRSTAYKDPETGEVFIKIESLPDFIPETSNCVRVRKLEGAWNILPLSENSCRVVFRLHIEPAGEIPSWLANIAVIDTPYHTLNNMRDMVKREKYKNPLEHHHHHH” belongs “not soluble”.
Turning to “MGSDKIHHHHHHMKILIKQDFDTMSEWAKMLLLSTMSQDKRVNLSITAGKTPALVYQKLASIVKNSSDFDNVHYYNFDEIPVPHQKEGITLTDLRTLYLTPAEISEQNIHPLTVENFQQQEQRIADAGGLDLMLIGLGADGHFCGNMPTTTHFKNETYQVTVTGSEPWFVPEMMQPGMTFVTMGPASIMKVKHLVLIVNGEQKAQMVKQVLQGPVTETYPASILQLHPNLTVLLDEAAASQLEK”, the “soluble on expression in E. coli” value is “not soluble”.
